Experimental data published in PMC314469, “Protein Interaction Networks by Proteome Peptide Scanning” (PLoS Biology, 2004).

T1: Boi2 SH3 (BOI2_YEAST), P39969
T1 chain: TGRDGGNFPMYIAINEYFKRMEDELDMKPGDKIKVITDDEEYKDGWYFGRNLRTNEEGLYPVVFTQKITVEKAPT

T2: Yhr016c SH3 (YSC84_YEAST), P32793
T2 chain: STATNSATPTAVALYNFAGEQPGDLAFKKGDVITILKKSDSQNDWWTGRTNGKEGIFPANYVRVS

T3: Myo5 SH3 (MYO5_YEAST), Q04439
T3 chain: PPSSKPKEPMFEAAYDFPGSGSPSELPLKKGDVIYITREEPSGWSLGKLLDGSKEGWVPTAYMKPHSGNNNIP

T4: Boi1 SH3 (BOI1_YEAST), P38041
T4 chain: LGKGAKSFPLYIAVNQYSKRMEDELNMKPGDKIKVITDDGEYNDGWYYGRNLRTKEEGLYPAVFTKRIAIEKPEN

T5: Rvs167 SH3 (RV167_YEAST), P39743
T5 chain: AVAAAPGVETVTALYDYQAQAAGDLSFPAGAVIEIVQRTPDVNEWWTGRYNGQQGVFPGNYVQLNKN

T6: Yfr024 SH3 (LSB3_YEAST), P43603
T6 chain: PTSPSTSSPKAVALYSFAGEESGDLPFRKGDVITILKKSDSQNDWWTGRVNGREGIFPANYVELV


Target: T1, Boi2 SH3 (BOI2_YEAST), P39969
Experiment: SPOT array

Point of comparison: SLRARNGPVPPVHI [YIR027C 235-248], normalised SPOT signal, Boehringer light units (BLU); mean over the file's lines of this peptide 0. Against it:
- ATKRKTIPVYPPVQ [YCR046C 20-33] — higher, 59.9
- AVQLKRQPAQPRES [YBR191W 125-138] — higher, 14.1
- ATGKRKLPGWPSAD [YIL165C 34-47] — higher, 4
- SAKSKSRPNTPGSD [YIR007W 739-752] — higher, 23.7
- AQKLKLLPEEPFQR [YDL001W 74-87] — higher, 16.2
- AVLIRADPLNPKVV [YCR028C 355-368] — the same, -0
- SNRARYLPQNPDII [YBR195C 132-145] — higher, 45.5
- SKYNRQHPANPAAA [YPL247C 221-234] — higher, 48.5
- AVGGKWEPGNPIAI [YHR113W 80-93] — higher, 14.1
- AVVYKLKPYIPSLS [YGR284C 61-74] — higher, 24.9
- ATVVKNSPGDPELF [YNL187W 329-342] — higher, 17
- ASKHKMFPFNPAKI [YLR115W 531-544] — higher, 1.5
- ATEAKSLPKIPSIP [YPL176C 343-356] — higher, 58.5
- ASFRKTKPPPPLDF [YAL017W 81-94] — higher, 21.6
- SFKTKFAPEAPDLF [YDL195W 303-316] — higher, 15

Target: T2, Yhr016c SH3 (YSC84_YEAST), P32793
Experiment: SPOT array

Point of comparison: SLRARNGPVPPVHI [YIR027C 235-248], normalised SPOT signal, Boehringer light units (BLU); mean over the file's lines of this peptide 9.1. Against it:
- ATKRKTIPVYPPVQ [YCR046C 20-33] — higher, 28.1
- AVQLKRQPAQPRES [YBR191W 125-138] — higher, 41.3
- ATGKRKLPGWPSAD [YIL165C 34-47] — higher, 92.2
- SAKSKSRPNTPGSD [YIR007W 739-752] — lower, 0
- AQKLKLLPEEPFQR [YDL001W 74-87] — lower, 3.4
- AVLIRADPLNPKVV [YCR028C 355-368] — higher, 9.5
- SNRARYLPQNPDII [YBR195C 132-145] — higher, 47.2
- SKYNRQHPANPAAA [YPL247C 221-234] — higher, 38.8
- AVGGKWEPGNPIAI [YHR113W 80-93] — higher, 19.6
- AVVYKLKPYIPSLS [YGR284C 61-74] — higher, 32.4
- ATVVKNSPGDPELF [YNL187W 329-342] — higher, 13.3
- ASKHKMFPFNPAKI [YLR115W 531-544] — higher, 16.3
- ATEAKSLPKIPSIP [YPL176C 343-356] — higher, 67.6
- ASFRKTKPPPPLDF [YAL017W 81-94] — higher, 304
- SFKTKFAPEAPDLF [YDL195W 303-316] — higher, 19

Target: T3, Myo5 SH3 (MYO5_YEAST), Q04439
Experiment: SPOT array

Point of comparison: ATEAKSLPKIPSIP [YPL176C 343-356], normalised SPOT signal, Boehringer light units (BLU); mean over the file's lines of this peptide 137. Against it:
- ATKRKTIPVYPPVQ [YCR046C 20-33] — higher, 274
- AVQLKRQPAQPRES [YBR191W 125-138] — higher, 238
- ATGKRKLPGWPSAD [YIL165C 34-47] — lower, 136
- SAKSKSRPNTPGSD [YIR007W 739-752] — higher, 153
- AQKLKLLPEEPFQR [YDL001W 74-87] — higher, 401
- AVLIRADPLNPKVV [YCR028C 355-368] — lower, 102
- SNRARYLPQNPDII [YBR195C 132-145] — higher, 244
- SKYNRQHPANPAAA [YPL247C 221-234] — higher, 189
- AVGGKWEPGNPIAI [YHR113W 80-93] — lower, 78.4
- AVVYKLKPYIPSLS [YGR284C 61-74] — lower, 112
- SLRARNGPVPPVHI [YIR027C 235-248] — higher, 208
- ATVVKNSPGDPELF [YNL187W 329-342] — lower, 76.2
- ASKHKMFPFNPAKI [YLR115W 531-544] — higher, 953
- ASFRKTKPPPPLDF [YAL017W 81-94] — higher, 169
- SFKTKFAPEAPDLF [YDL195W 303-316] — higher, 209

Target: T4, Boi1 SH3 (BOI1_YEAST), P38041
Experiment: SPOT array

Point of comparison: ASFRKTKPPPPLDF [YAL017W 81-94], normalised SPOT signal, Boehringer light units (BLU); mean over the file's lines of this peptide 1950. Against it:
- ATKRKTIPVYPPVQ [YCR046C 20-33] — lower, 263
- AVQLKRQPAQPRES [YBR191W 125-138] — lower, 1480
- ATGKRKLPGWPSAD [YIL165C 34-47] — lower, 127
- SAKSKSRPNTPGSD [YIR007W 739-752] — lower, 1740
- AQKLKLLPEEPFQR [YDL001W 74-87] — lower, 713
- AVLIRADPLNPKVV [YCR028C 355-368] — lower, 15.3
- SNRARYLPQNPDII [YBR195C 132-145] — lower, 386
- SKYNRQHPANPAAA [YPL247C 221-234] — lower, 210
- AVGGKWEPGNPIAI [YHR113W 80-93] — lower, 41.1
- AVVYKLKPYIPSLS [YGR284C 61-74] — lower, 99.5
- SLRARNGPVPPVHI [YIR027C 235-248] — lower, 638
- ATVVKNSPGDPELF [YNL187W 329-342] — lower, 644
- ASKHKMFPFNPAKI [YLR115W 531-544] — lower, 349
- ATEAKSLPKIPSIP [YPL176C 343-356] — lower, 108
- SFKTKFAPEAPDLF [YDL195W 303-316] — lower, 59.6

Each binder was assayed against Sho1 SH3 (SHO1_YEAST), P40073 (assay: SPOT array).
Sequence of Sho1 SH3 (SHO1_YEAST), P40073 (P40073 295-366): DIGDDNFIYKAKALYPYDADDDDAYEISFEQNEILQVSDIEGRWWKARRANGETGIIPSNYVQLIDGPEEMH

Point of comparison: AVVYKLKPYIPSLS [YGR284C 61-74], normalised SPOT signal, Boehringer light units (BLU); mean over the file's lines of this peptide 93.3. Against it:
- ATKRKTIPVYPPVQ [YCR046C 20-33] — lower, 30.2
- AVQLKRQPAQPRES [YBR191W 125-138] — lower, 65
- ATGKRKLPGWPSAD [YIL165C 34-47] — lower, 52.8
- SAKSKSRPNTPGSD [YIR007W 739-752] — higher, 146
- AQKLKLLPEEPFQR [YDL001W 74-87] — higher, 3780
- AVLIRADPLNPKVV [YCR028C 355-368] — lower, 13.9
- SNRARYLPQNPDII [YBR195C 132-145] — lower, 35.8
- SKYNRQHPANPAAA [YPL247C 221-234] — lower, 65.9
- AVGGKWEPGNPIAI [YHR113W 80-93] — lower, 0
- SLRARNGPVPPVHI [YIR027C 235-248] — lower, 58.5
- ATVVKNSPGDPELF [YNL187W 329-342] — lower, 51.1
- ASKHKMFPFNPAKI [YLR115W 531-544] — lower, 65.5
- ATEAKSLPKIPSIP [YPL176C 343-356] — higher, 19100
- ASFRKTKPPPPLDF [YAL017W 81-94] — lower, 19.5
- SFKTKFAPEAPDLF [YDL195W 303-316] — lower, 35.8

Target: T5, Rvs167 SH3 (RV167_YEAST), P39743
Experiment: SPOT array

Point of comparison: AVGGKWEPGNPIAI [YHR113W 80-93], normalised SPOT signal, Boehringer light units (BLU); mean over the file's lines of this peptide 39.6. Against it:
- ATKRKTIPVYPPVQ [YCR046C 20-33] — higher, 49.7
- AVQLKRQPAQPRES [YBR191W 125-138] — higher, 73.8
- ATGKRKLPGWPSAD [YIL165C 34-47] — higher, 80.9
- SAKSKSRPNTPGSD [YIR007W 739-752] — higher, 129
- AQKLKLLPEEPFQR [YDL001W 74-87] — higher, 76.9
- AVLIRADPLNPKVV [YCR028C 355-368] — lower, 12.9
- SNRARYLPQNPDII [YBR195C 132-145] — lower, 36.2
- SKYNRQHPANPAAA [YPL247C 221-234] — higher, 61.3
- AVVYKLKPYIPSLS [YGR284C 61-74] — lower, 31.8
- SLRARNGPVPPVHI [YIR027C 235-248] — higher, 46.2
- ATVVKNSPGDPELF [YNL187W 329-342] — lower, 28.9
- ASKHKMFPFNPAKI [YLR115W 531-544] — higher, 80.6
- ATEAKSLPKIPSIP [YPL176C 343-356] — higher, 47.7
- ASFRKTKPPPPLDF [YAL017W 81-94] — higher, 48.5
- SFKTKFAPEAPDLF [YDL195W 303-316] — higher, 46.5

Target: T6, Yfr024 SH3 (LSB3_YEAST), P43603
Experiment: SPOT array

Point of comparison: ATKRKTIPVYPPVQ [YCR046C 20-33], normalised SPOT signal, Boehringer light units (BLU); mean over the file's lines of this peptide 204. Against it:
- AVQLKRQPAQPRES [YBR191W 125-138] — higher, 438
- ATGKRKLPGWPSAD [YIL165C 34-47] — higher, 3620
- SAKSKSRPNTPGSD [YIR007W 739-752] — lower, 122
- AQKLKLLPEEPFQR [YDL001W 74-87] — lower, 29.1
- AVLIRADPLNPKVV [YCR028C 355-368] — lower, 34.4
- SNRARYLPQNPDII [YBR195C 132-145] — higher, 304
- SKYNRQHPANPAAA [YPL247C 221-234] — lower, 126
- AVGGKWEPGNPIAI [YHR113W 80-93] — lower, 17.2
- AVVYKLKPYIPSLS [YGR284C 61-74] — lower, 132
- SLRARNGPVPPVHI [YIR027C 235-248] — lower, 157
- ATVVKNSPGDPELF [YNL187W 329-342] — lower, 27.6
- ASKHKMFPFNPAKI [YLR115W 531-544] — higher, 214
- ATEAKSLPKIPSIP [YPL176C 343-356] — lower, 39.5
- ASFRKTKPPPPLDF [YAL017W 81-94] — higher, 816
- SFKTKFAPEAPDLF [YDL195W 303-316] — lower, 23.2
